Results: the RNAGym collection of RNA variant scans (doi:10.7554/elife.80360)

B1: CPEB3 Ribozyme (parent)
chain: GGGGGCCACAGCAGAAGCGUUCACGUCGCGGCCCCUGUCAGAUUCUGGUGAAUCUGCGAAUUCUGCUGU

Variants of: B1
Assay: self-cleavage, relative activity (ratio to wild type); higher = more cleavage; co-transcriptional

With GGGGGCCACAGCAGAAGCGUUCACGUCUCGGCCCCUGUCAGAUUCUGGUGAAUCUGCGAAUUCUGGUGU [G28U C66G] as the variant, how does the self-cleavage read?
The self-cleavage was 0.16.

Which self-cleavage does the source give for GGGGGCCACAGCAGAAGCGUUCACGUCUCGGCCCCUGUCAGAUUCUGGUGAAUCUGCGAAUUCUGUUGU [G28U C66U] here?
Its self-cleavage is 0.168.

Which self-cleavage does the source give for GGGGGCCACAGCAGAAGCGUUCACGUCUCGUCCCCUGUCAGAUUCUGGUGAAUCUGCGAAUUCUGCUGU [G28U G31U] here?
The self-cleavage was 0.171.

With GGGGGCCACAGCAGAAGCGUUCACGUCUCGCCCCCUGUCAGAUUCUGGUGAAUCUGCGAAUUCUGCUGU [G28U G31C] as the variant, how does the self-cleavage read?
The self-cleavage was 0.141.

With GGGGGCCACAGCAGAAGCGUUCACGUCUCGGCCCCCGUCAGAUUCUGGUGAAUCUGCGAAUUCUGCUGU [G28U U36C] as the variant, how does the self-cleavage read?
Its self-cleavage is 0.135.

With GGGGGCCACAGCAGAAGCGUUCACGUCUCGGCCCCUGUCAGAUUCUGAUGAAUCUGCGAAUUCUGCUGU [G28U G48A] as the variant, how does the self-cleavage read?
Its self-cleavage is 0.255.

For GGGGGCCACAGCAGAAGCGUUCACGUCUCGGCCCCUGUCAGAUUCUGGUGAAUCUGCGAAUUCUGCUCU [G28U G68C], which self-cleavage is on record?
The self-cleavage was 0.243.

With GGGGGCCACAGCAGAAGCGUUCACGUCUCGGCCCCUGUCAGAUUCUAGUGAAUCUGCGAAUUCUGCUGU [G28U G47A] as the variant, how does the self-cleavage read?
The self-cleavage was 0.173.

With GGGGGCCACAGCAGAAGCGUUCACGUCUCGGCCCCUGUCAGAUUCUUGUGAAUCUGCGAAUUCUGCUGU [G28U G47U] as the variant, how does the self-cleavage read?
The self-cleavage was 0.151.

For GGGGGCCACAGCAGAAGCGUUCACGUCUCGGCCCCUGUCAGAUUCUCGUGAAUCUGCGAAUUCUGCUGU [G28U G47C], which self-cleavage is on record?
The self-cleavage was 0.205.

For GGGGGCCACAGCAGAAGCGUUCACGUCUCGGCCCCUGUCAGAUUCUGGUGAAUCUGCGAAUUCUGCCGU [G28U U67C], which self-cleavage is on record?
The self-cleavage was 0.224.

For GGGGGCCACAGCAGAAGCGUUCACGUCUCGGCCCCUGUCAGAUUCUGGUGAAUCUGCGAAUUCUGCAGU [G28U U67A], which self-cleavage is on record?
The self-cleavage was 0.168.

With GGGGGCCACAGCAGAAGCGUUCACGUCUCGGCCCCUGUCAGAUUCUGGUGAAUCUGCGAAUUCUGCGGU [G28U U67G] as the variant, how does the self-cleavage read?
The self-cleavage was 0.203.

With GGGGGCCACAGCAGAAGCGUUCACGUCUCGGCCCCUGUCAGAUUCUGGUGAAUCUGCGAAUUCUGCUGG [G28U U69G] as the variant, how does the self-cleavage read?
Its self-cleavage is 0.254.

With GGGGGCCACAGCAGAAGCGUUCACGUCUCGGCCCCUGUCAGAUUCUGGUGAAGCUGCGAAUUCUGCUGU [G28U U53G] as the variant, how does the self-cleavage read?
The self-cleavage was 0.22.

Which self-cleavage does the source give for GGGGGCCACAGCAGAAGCGUUCACGUCUCGGCCCCUGUCAGAUUCUGGUGAAACUGCGAAUUCUGCUGU [G28U U53A] here?
Its self-cleavage is 0.188.

Which self-cleavage does the source give for GGGGGCCACAGCAGAAGCGUUCACGUCUCGGCCCCUGUCAGAUUCUGGUGAAUCCGCGAAUUCUGCUGU [G28U U55C] here?
The self-cleavage was 0.154.

Which self-cleavage does the source give for GGGGGCCACAGCAGAAGCGUUCACGUCUCGGCCCCUGUCAGAUUCUGGUGAAUCAGCGAAUUCUGCUGU [G28U U55A] here?
Its self-cleavage is 0.203.

Which self-cleavage does the source give for GGGGGCCACAGCAGAAGCGUUCACGUCUCGGCCCCUGUCAGACUCUGGUGAAUCUGCGAAUUCUGCUGU [G28U U43C] here?
Its self-cleavage is 0.176.

With GGGGGCCACAGCAGAAGCGUUCACGUCUCGGCCCCUGUCAAAUUCUGGUGAAUCUGCGAAUUCUGCUGU [G28U G41A] as the variant, how does the self-cleavage read?
The self-cleavage was 0.166.

With GGGGGCCACAGCAGAAGCGUUCACGUCUCGGCCCCUGUCACAUUCUGGUGAAUCUGCGAAUUCUGCUGU [G28U G41C] as the variant, how does the self-cleavage read?
The self-cleavage was 0.163.

With GGGGGCCACAGCAGAAGCGUUCACGUCUCGGCCCCUGUCAUAUUCUGGUGAAUCUGCGAAUUCUGCUGU [G28U G41U] as the variant, how does the self-cleavage read?
Its self-cleavage is 0.155.

For GGGGGCCACAGCAGAAGCGUUCACGUCUCGGCCCCUGUCAGAUUCUGGUGAAUCUGCGAAUUUUGCUGU [G28U C63U], which self-cleavage is on record?
The self-cleavage was 0.187.

With GGGGGCCACAGCAGAAGCGUUCACGUCUCGGCCCCUGUCAGAUUCUGGUGAAUCUGCGAAUUAUGCUGU [G28U C63A] as the variant, how does the self-cleavage read?
The self-cleavage was 0.189.

For GGGGGCCACAGCAGAAGCGUUCACGUCUCGGCCCCUGUCAGAUUCUGGUGAAUCUGCGAAUUGUGCUGU [G28U C63G], which self-cleavage is on record?
Its self-cleavage is 0.254.

Which self-cleavage does the source give for GGGGGCCACAGCAGAAGCGUUCACGUCUCGGCCCCUGUGAGAUUCUGGUGAAUCUGCGAAUUCUGCUGU [G28U C39G] here?
The self-cleavage was 0.206.

Which self-cleavage does the source give for GGGGGCCACAGCAGAAGCGUUCACGUCUCGGCCCCUGUAAGAUUCUGGUGAAUCUGCGAAUUCUGCUGU [G28U C39A] here?
The self-cleavage was 0.103.

For GGGGGCCACAGCAGAAGCGUUCACGUCUCGGCCCCUGUCAGAUUCUGGGGAAUCUGCGAAUUCUGCUGU [G28U U49G], which self-cleavage is on record?
Its self-cleavage is 0.11.

Which self-cleavage does the source give for GGGGGCCACAGCAGAAGCGUUCACGUCUCGGCCCCUGUCAGAUUCUGGAGAAUCUGCGAAUUCUGCUGU [G28U U49A] here?
Its self-cleavage is 0.166.

With GGGGGCCACAGCAGAAGCGUUCACGUCUCGGCCCCUGUCAGAUUCUGGCGAAUCUGCGAAUUCUGCUGU [G28U U49C] as the variant, how does the self-cleavage read?
The self-cleavage was 0.178.

For GGGGGCCACAGCAGAAGCGUUCACGUCUCGGCCCCUGUCAGAUUCUGGUGAAUCUGCGAAUUCUCCUGU [G28U G65C], which self-cleavage is on record?
The self-cleavage was 0.132.

For GGGGGCCACAGCAGAAGCGUUCACGUCUAGGCCCCUGUCAGAUUCUGGUGAAUCUGCGAAUUCUGCUGU [G28U C29A], which self-cleavage is on record?
Its self-cleavage is 0.142.

For GGGGGCCACAGCAGAAGCGUUCACGUCUUGGCCCCUGUCAGAUUCUGGUGAAUCUGCGAAUUCUGCUGU [G28U C29U], which self-cleavage is on record?
Its self-cleavage is 0.174.

Which self-cleavage does the source give for GGGGGCCACAGCAGAAGCGUUCACGUCUCGGCCCCUGUCAGAUUCUGGUGAAUCUGCGAAGUCUGCUGU [G28U U61G] here?
The self-cleavage was 0.221.

With GGGGGCCACAGCAGAAGCGUUCACGUCUCGGCCCCUGUCAGAUUCUGGUGAAUCUGCGAACUCUGCUGU [G28U U61C] as the variant, how does the self-cleavage read?
The self-cleavage was 0.11.

With GGGGGCCACAGCAGAAGCGUUCACGUCUCGGCCCCUGUCAGAUUCUGGUGAAUAUGCGAAUUCUGCUGU [G28U C54A] as the variant, how does the self-cleavage read?
The self-cleavage was 0.144.

With GGGGGCCACAGCAGAAGCGUUCACGUCUCGGCCCCUGUCAGAUUCUGGUGAAUGUGCGAAUUCUGCUGU [G28U C54G] as the variant, how does the self-cleavage read?
The self-cleavage was 0.158.

Which self-cleavage does the source give for GGGGGCCACAGCAGAAGCGUUCACGUCUCGGCCCCUGUCAGAUGCUGGUGAAUCUGCGAAUUCUGCUGU [G28U U44G] here?
Its self-cleavage is 0.175.

With GGGGGCCACAGCAGAAGCGUUCACGUCGAGGCCCCUGUCAGAUUCUGGUGAAUCUGCGAAUUCUGCUGU [C29A] as the variant, how does the self-cleavage read?
Its self-cleavage is 0.777.
